Measurements reported in PMC4513076.

Columns and labels:
[1] = target: T1, IolR (Salmonella enterica) (UniProt A0A0H3NJ61); assay: EMSA
T1 sequence: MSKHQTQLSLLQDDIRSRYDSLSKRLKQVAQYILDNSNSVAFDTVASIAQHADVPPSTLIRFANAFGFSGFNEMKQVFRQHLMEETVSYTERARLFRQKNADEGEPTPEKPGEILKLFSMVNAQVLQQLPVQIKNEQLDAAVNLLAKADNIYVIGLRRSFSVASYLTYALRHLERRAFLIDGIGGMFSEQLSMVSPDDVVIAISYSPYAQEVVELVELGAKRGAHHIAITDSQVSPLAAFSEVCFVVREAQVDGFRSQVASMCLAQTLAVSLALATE

[2] = target: IolR, myo-inositol catabolism repressor (RpiR-like transcriptional repressor) of Salmonella enterica (Salmonella enterica serovar Typhimurium LT2); assay: SEC
[3] = target: IolR (Salmonella enterica, UniProt A0A0H3NJ61 1-277); assay: EMSA

Question: For “CATACCGGTTTCCCTTACACAGAAGTGACCGGATAATTTTAAACGCTTTCGCTATTTTATGCTGTGACGTTTCCCGGATGTTGCGTTTTTCCTGCCAGATAGCGCGTTTTGAAACGGGTGAAATGTTCACCTAAACTGGTTGCCGCCTCG (double strand) [Ppat (150 nt)]”, which binding [1] is on record?
Answer: binds

Question: How did the binding [1] turn out when “CATGCATGATACTCTAATAGAACGAAAATTTCGTAAATAACCATATTAGCACAAATGAACTGAACATACAGTTAACAACATTCAAATTGCGCTGTGGTTACCTTCAGTACAGAATTTGCTGGCGGGCTGGGTTCTGAGCAATCTGAATCTGACCGCATAAATGCGACAGGATCAG (double strand) [PiolR (175 nt)]” was run?
Answer: binds

Question: With “IolR, myo-inositol catabolism repressor (RpiR-like transcriptional repressor) of Salmonella enterica (natural protein)” as the molecule, how does the stoichiometry N [2] read?
Answer: 4

B1: Ppat45 (dsDNA)
DNA 1: CAACCAGTTTAGGTGAACATTTCACCCGTTTCAAAACGCGCTATCT
DNA 2: AGATAGCGCGTTTTGAAACGGGTGAAATGTTCACCTAAACTGGTTG
Question: Does B1 bind [3]?
Answer: binds
